{"source": "patent US20090202619A1", "about": "“POLYOXYALKYLENE CHAIN-CONTAINING LIPID DERIVATIVE AND LIPID FILM STRUCTURE CONTAINING SUCH DERIVATIVE” (THE UNIVERSITY OF TOKUSHIMA, priority 2005, published 2009)", "set-up": "species or system male ddY mouse", "settings": "mouse, in vivo, iv", "from_the_text": "Using the methylpolyoxyethylenecarbamyl-glycyl-glycyl-glycyl-distearoylphosphadylethanolamine (DSPE-GGG-PEG2000) obtained in Example 5 or the methylpolyoxyethylenecarbamyl-distearoylphosphadylethanolamine (DSPE-PEG2000), egg yolk phosphatidylcholine (EPC) or hydrogenated egg yolk phosphatidylcholine (HEPC), and cholesterol, a composition in the blending ratios shown in Table 2 below was weighed in an egg plant flask, and the liposome solutions of Example 9 and Comparative Examples 4 to 5 were obtained by the same method as (1) above but using doxorubicin in place of the fluorescent dye. To monitor the blood kinetics of the liposome per se, 40 μCi/μmol ^3H-cholesterylhexadecyl ether (^3H-CHE) was added. […]\nNext, each liposome was administered to a male ddY mouse from the tail vein (25 mg lipid/kg), blood was collected 2 minutes, 30 minutes, 1 hour, 2 hours, 4 hours, 8 hours, and 24 hours after the administration, the radioactivity in blood was measured to determine the concentration of the liposome per se, and doxorubicin was measured by the fluorescence method to determine the doxorubicin concentration at that time point. Because the doxorubicin that has leaked from the liposome is quickly distributed in various tissues, doxorubicin concentrations determined by this method are considered to reflect the amount of doxorubicin retained in the liposome.", "data": [{"substance": "methylpolyoxyethylenecarbamyl-glycyl-glycyl-glycyl-distearoylphosphadylethanolamine [Example 4]", "values": [{"measurement": "cleavage of the lipid derivative in blood", "value": "minimally cleaved in blood"}, {"measurement": "influence on the drug-releasing characteristics of liposome", "value": "did not influence the drug-releasing characteristics of liposome"}]}]}
